Data from patent publication CN110172090A.

B1: 抗人OX40单克隆抗体 (杂交瘤OX401M) (antibody, part only; not given: constant regions, V domains shown, part only)
VH: QVQLAQPGAELVRPGASVKQYCKASGYSGSSYTIHWVKQTPSRGLEWIGAIYPGNGDTSWNQKFKGKATITADKSSSTAYMRLSSLTSEDSAISYCARSTYYYGAYYFDYWGQGSTL

Key:
[1] = target: OX40 (Kd检测ELISA法的抗原) (human) (UniProt P43489); assay: ELISA-based Kd method (ELASA法)
[2] = target: 人OX40 (膜表面过表达人OX40的293T细胞系) (human) (UniProt P43489); assay: flow cytometry on 293T cells overexpressing human OX40
[3] = target: 人OX40 (膜表面过表达人OX40的293T细胞系) (human) (UniProt P43489); assay: flow cytometry on 293T cells overexpressing human OX40, PE goat anti-mouse secondary

Row | Molecule | Kd [1] [nM] | EC50 [2] [nM] | EC50 [3] [nM]
1 | CD40 Monoclonal Antibody (HB14), PE, Catalog#CD4004, Invitrogen | 9.8 | 2.5 | –
2 | B1 | 0.0273 | – | 0.0125
